Molecular target: CD64 (human, UniProt P12314 16-374)
Test: cell-based or functional assay

Chain of CD64 (P12314 16-374): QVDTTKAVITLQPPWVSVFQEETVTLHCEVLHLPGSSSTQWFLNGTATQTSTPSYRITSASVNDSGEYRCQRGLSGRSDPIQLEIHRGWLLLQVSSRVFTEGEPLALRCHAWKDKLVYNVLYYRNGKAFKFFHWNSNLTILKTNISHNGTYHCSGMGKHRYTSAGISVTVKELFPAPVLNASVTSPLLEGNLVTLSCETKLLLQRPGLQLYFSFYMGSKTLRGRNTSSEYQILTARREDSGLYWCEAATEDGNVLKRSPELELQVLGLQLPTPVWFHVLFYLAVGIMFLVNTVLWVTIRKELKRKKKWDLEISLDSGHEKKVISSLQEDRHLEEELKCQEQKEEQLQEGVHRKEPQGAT

B1: H22-Ang GGRR/QGmut (other)
chain: DAAQPAMAQVQLVESGGGVVQPGRSLRLSCSSSGFIFSDNYMYWVRQAPGKGLEWVATISDGGSYTYYPDSVKGRFTISRDNSKNTLFLQMDSLRPEDTGVYFCARGYYRYEGAMDYWGQGTPVTVSSGGGGSGGGGSGGGGSDIQLTQSPSSLSASVGDRVTITCKSSQSVLYSSNQKNYLAWYQQKPGKAPKLLIYWASTRESGVPSRFSGSGSGTDFTFTISSLQPEDIATYYCHQYLSSWTFGQGTKLEIKAAALESRQDNSRYTHFLTQHYDAKPQGRDDRYCESIMRRRGLTSPCKDINTFIHGNKRSIKAICENKNGNPHRENLRISKSSFQVTTCKLHRRSPWPPCQYRATAGFRNVVVACENGLPVHLDGSIFRRPAEHEFRGGPEQKLISEEDLNSAVDHHHHHH
IC50, XTT viability assay on IFNγ-stimulated CD64+ HL-60 cells: 4.2 nM | IC50, XTT viability assay on activated human Mφ: 0.075 nM | IC50, XTT viability assay on hIFNγ-stimulated HL-60 cells: 4.3 nM

From patent US20170114111A1 (UNIVERSITY OF CAPE TOWN, published 2017)
